# According to patent publication US10087225B2, “Formulation of MK2 inhibitor peptides” (MOERAE MATRIX, INC., priority 2015, dated 2018):
# Key:
# Assay in all cases: Kinase Profiling Assay
# Type in all cases: biochemical
# Conditions in all cases: for % activity: 100 μM
# Tec(h)activated = molecular target: T1, Tec(h)activated (Homo sapiens, UniProt P42680)
# T1 sequence (P42680 1-631): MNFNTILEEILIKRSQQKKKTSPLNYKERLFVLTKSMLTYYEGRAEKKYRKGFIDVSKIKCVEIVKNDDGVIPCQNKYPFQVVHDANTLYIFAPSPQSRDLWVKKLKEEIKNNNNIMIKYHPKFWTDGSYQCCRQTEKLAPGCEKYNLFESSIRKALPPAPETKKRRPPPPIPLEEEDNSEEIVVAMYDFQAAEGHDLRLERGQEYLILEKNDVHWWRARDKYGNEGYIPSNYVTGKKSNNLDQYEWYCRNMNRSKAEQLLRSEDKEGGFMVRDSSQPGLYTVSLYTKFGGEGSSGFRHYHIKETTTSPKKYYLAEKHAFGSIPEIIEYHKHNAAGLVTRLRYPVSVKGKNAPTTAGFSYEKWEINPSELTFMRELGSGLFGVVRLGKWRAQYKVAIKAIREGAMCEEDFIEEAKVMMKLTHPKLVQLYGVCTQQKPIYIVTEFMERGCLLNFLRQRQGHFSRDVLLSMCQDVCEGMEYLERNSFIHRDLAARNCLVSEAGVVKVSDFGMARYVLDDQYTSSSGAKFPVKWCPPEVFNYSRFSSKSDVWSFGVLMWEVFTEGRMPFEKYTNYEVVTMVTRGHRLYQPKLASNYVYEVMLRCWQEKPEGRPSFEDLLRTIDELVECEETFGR
# DMPK(h) = molecular target: T2, DMPK(h) (Homo sapiens, UniProt Q09013)
# T2 sequence (Q09013 1-629): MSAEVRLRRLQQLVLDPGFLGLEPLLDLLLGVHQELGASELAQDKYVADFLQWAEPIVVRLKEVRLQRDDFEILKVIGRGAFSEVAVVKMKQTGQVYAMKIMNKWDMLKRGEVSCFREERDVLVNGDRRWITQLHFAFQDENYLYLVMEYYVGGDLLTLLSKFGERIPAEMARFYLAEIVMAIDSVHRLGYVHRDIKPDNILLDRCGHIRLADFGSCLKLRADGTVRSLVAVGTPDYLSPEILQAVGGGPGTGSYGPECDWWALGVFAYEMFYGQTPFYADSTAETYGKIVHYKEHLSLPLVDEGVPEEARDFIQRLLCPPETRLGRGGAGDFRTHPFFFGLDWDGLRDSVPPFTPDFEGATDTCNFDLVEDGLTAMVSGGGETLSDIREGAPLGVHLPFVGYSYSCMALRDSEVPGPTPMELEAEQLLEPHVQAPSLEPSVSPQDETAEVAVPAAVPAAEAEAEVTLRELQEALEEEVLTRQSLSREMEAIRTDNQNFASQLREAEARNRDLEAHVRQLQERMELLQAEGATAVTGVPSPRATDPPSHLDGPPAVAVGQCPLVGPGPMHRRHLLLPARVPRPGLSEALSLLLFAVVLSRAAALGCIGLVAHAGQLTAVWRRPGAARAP
# EphB4(h) = molecular target: T3, EphB4(h) (Homo sapiens, UniProt P54760)
# T3 sequence (P54760 16-987): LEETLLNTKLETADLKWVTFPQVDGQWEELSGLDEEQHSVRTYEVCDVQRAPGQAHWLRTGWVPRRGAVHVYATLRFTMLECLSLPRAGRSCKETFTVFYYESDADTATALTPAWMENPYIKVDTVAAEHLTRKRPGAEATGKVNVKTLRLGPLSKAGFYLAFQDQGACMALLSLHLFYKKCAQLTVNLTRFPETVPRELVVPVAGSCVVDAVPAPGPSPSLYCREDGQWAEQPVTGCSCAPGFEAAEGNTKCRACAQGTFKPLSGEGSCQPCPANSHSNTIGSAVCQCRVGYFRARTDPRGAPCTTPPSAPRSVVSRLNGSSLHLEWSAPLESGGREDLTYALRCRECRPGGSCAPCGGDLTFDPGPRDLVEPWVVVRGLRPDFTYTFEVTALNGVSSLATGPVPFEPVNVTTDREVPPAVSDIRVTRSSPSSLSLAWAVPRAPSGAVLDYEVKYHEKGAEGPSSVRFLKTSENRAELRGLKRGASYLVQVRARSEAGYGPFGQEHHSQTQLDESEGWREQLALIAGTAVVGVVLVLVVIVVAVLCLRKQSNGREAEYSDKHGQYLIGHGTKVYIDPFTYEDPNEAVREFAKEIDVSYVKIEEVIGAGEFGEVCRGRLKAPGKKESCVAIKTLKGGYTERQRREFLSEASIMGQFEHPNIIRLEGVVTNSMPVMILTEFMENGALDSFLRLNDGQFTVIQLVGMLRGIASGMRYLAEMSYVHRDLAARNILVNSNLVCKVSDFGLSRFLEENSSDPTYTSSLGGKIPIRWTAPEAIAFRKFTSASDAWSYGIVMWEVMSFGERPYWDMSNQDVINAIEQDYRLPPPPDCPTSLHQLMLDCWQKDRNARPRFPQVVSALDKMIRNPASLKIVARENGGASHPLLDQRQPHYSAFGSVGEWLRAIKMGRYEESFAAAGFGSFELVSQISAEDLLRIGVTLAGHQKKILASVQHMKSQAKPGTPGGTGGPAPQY
# PRK2(h) = PRK2(h) (Homo sapiens, UniProt Q16513)
# PRK2(h), sequence (Q16513 whole entry): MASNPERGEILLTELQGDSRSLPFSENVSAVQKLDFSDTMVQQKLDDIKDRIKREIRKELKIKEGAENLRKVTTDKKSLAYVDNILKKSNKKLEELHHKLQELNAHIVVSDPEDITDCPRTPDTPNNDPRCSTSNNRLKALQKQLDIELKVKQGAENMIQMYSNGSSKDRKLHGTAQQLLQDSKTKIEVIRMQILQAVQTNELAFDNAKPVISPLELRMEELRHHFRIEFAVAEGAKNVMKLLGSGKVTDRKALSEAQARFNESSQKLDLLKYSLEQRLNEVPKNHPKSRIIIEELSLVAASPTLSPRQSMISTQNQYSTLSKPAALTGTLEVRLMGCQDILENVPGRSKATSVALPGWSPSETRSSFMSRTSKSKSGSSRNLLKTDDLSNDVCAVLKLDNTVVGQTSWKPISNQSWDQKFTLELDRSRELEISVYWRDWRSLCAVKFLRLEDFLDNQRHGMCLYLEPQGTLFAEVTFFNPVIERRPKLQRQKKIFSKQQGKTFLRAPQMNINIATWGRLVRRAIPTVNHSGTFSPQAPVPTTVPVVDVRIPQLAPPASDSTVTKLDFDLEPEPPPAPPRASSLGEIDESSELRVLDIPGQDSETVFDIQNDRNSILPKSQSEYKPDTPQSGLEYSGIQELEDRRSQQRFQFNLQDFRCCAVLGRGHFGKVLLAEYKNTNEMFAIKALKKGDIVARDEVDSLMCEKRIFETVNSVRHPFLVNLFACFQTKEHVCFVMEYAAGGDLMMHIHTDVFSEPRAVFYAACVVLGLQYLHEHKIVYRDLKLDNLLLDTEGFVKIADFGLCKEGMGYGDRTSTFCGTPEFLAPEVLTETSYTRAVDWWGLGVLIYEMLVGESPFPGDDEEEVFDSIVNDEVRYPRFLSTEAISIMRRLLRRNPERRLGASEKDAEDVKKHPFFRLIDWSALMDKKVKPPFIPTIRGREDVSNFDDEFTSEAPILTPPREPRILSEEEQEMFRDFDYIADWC
substance,measurement,setting,value
YARAAARQARAKALNRQLGVA (Mammalian) [MMI-0200],% activity,Tec(h)activated,77%
same,% activity,DMPK(h),66%
same,% activity,EphB4(h),131%
same,% activity,PRK2(h),74%
H-YARAAARQARAKALARQLGVAA-OH [MMI-0100],activity at 100 µM,Tec(h)activated,100%
same,activity at 100 µM,DMPK(h),60%
same,activity at 100 µM,EphB4(h),62%
same,activity at 100 µM,PRK2(h),72%
HRRIKAWLKKIKALARQLGVAA (Mammalian) [MMI-0500],% activity,Tec(h)activated,33%
same,% activity,DMPK(h),12%
same,% activity,EphB4(h),38%
same,% activity,PRK2(h),7%
